Consider five molecules from US20240400616A1 (Bicycle, published 2024).

The target of experiment [1] is T1, human Nectin-4 (protein used in the fluorescence polarisation direct and competition binding assays) (human, UniProt Q96NY8 32-349).
T1 construct: It may be the Gly32-Ser349 FLAG construct described for SPR
T1 sequence (looked up): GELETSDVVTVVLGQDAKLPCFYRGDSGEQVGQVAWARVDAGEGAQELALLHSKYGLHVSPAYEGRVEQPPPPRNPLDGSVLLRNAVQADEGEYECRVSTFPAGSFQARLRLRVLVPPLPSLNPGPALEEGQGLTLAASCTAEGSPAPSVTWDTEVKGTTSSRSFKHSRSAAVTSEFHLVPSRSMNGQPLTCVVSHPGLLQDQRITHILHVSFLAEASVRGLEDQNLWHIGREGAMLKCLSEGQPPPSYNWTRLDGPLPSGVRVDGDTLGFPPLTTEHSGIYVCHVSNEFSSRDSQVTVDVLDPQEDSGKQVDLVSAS
The experiment can be described thus: fluorescence polarisation direct binding assay. The protocol:
(§1) Affinity of the peptides of the invention for human Nectin-4 (Ki) was determined using a fluorescence polarisation assay, in accordance with the methods disclosed in WO 2016/067035. Peptides of the invention with a fluorescent tag (either fluorescein, SIGMA or Alexa Fluor488™, Fisher Scientific) were diluted to 2.5 nM in PBS with 0.01% tween 20 or 50 mM HEPES with 100 mM NaCl and 0.01% tween pH 7.4 (both referred to as assay buffer). […] Measurements were conducted on a BMG PHERAstar FS equipped with an “FP 485 520 520” optic module which excites at 485 nm and detects parallel and perpendicular emission at 520 nm. The PHERAstar FS was set at 25° C. with 200 flashes per well and a positioning delay of 0.1 second, with each well measured at 5 to 10 minute intervals for 60 minutes. […] Data was analysed using Systat Sigmaplot version 12.0. mP values were fit to a user defined quadratic equation to generate a Kd value: f=ymin+ (ymax−ymin)/Lig*((x+Lig+Kd)/2-sqrt((((x+Lig+Kd)/2)\hat{ }2)−(Lig*x))).
Background: Polarisation of emitted light reports the rotation of a fluorescent probe.

In experiment [2] the target is T2, Human Nectin-4 (residues Gly32-Ser349; NCBI RefSeq: NP_112178.2) with C-terminal FLAG tag, biotinylated (human, UniProt Q96NY8 32-349, randomly biotinylated with EZ-Link Sulfo-NHS-LC-LC-Biotin).
T2 construct: range 32-349; also called human Necin-4 protein; biotinylated Nectin-4; not shown: C-terminal FLAG tag
T2 sequence (looked up): T1 sequence (looked up)
The experiment can be described thus: Biacore SPR, biotinylated Nectin-4 captured on streptavidin chip, peptide as analyte; n = 1. (In general: In SPR one partner is held on a chip, and binding of the other changes the refractive index at the surface.)

The target of experiment [3] is T1, human Nectin-4 (protein used in the …). The experiment in a line: fluorescence polarisation competition; competitor: fluorescent tracer SEQ ID NO: 2; 2 experiments. The protocol:
as §1
(§2) Peptides were diluted to an appropriate concentration in assay buffer as described in the direct binding assay with a maximum of 5% DMSO, then serially diluted 1 in 2. […] Measurements were conducted as for the direct binding assay, however the gain was determined prior to the first measurement. […]

In experiment [4] the target is T3, Nectin-4 on MDA-MB-468 cells (UniProt Q96NY8 32-510, limits assumed).
T3 construct: whole, on cells; the cell line is a human breast cancer line; also called PVRL-4
T3 sequence (looked up): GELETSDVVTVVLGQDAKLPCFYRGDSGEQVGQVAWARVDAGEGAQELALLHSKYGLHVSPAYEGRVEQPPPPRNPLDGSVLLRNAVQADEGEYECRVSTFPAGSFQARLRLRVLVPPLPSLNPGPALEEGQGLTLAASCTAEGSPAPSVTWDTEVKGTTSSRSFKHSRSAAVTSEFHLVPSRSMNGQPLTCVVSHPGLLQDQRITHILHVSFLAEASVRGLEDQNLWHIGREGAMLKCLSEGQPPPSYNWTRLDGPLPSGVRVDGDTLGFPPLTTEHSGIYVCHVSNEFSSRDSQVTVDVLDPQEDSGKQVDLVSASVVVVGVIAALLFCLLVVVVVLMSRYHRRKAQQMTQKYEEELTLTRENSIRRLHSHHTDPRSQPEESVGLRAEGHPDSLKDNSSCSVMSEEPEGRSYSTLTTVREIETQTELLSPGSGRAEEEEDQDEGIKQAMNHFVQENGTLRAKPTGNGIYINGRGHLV
The experiment in a line: historical Kd as printed in Table 44; assay not described.

Experiment [5] deals with T2, Human Nectin-4 (residues Gly32-Ser349; …). The experiment can be described thus: Biacore SPR, biotinylated Nectin-4 captured on streptavidin chip, conjugate as analyte.
Experiment [6] deals with T3, Nectin-4 on MDA-MB-468 cells. The experiment can be described thus: HCS cell-binding assay on MDA-MB-468 cells at 4°C: cells incubated with the test agent, washed, detected with a fluorescent antibody to MMAE; readout membrane mean intensity CH2 (RFU) [A]. The protocol: (§3) HCS assay was used in Nectin-4 BDC binding study. Cells were incubated with test agent and then washed. Detection was by a fluorescent antibody to MMAE.

Experiment [7] shares this target. The experiment in a line: HCS cell binding assay on MDA-MB-468 cells, detection with fluorescent anti-MMAE antibody. The protocol:
as §3

The target in experiment [8] is T1, human Nectin-4 (protein used in the …). The experiment in a line: fluorescence polarisation competition; competitor: fluorescent tracer SEQ ID NO: 2; 6 experiments. Here is the method: as §1, §2
Experiment [9] deals with T2, Human Nectin-4 (residues Gly32-Ser349; …). The experiment in a line: Biacore SPR, biotinylated Nectin-4 captured on streptavidin chip, peptide as analyte; n = 4.

*1 amine or outer side, *2 acyl side, *3 side chain or, on linkers, in order; H or OH if unused. Bridges are numbered along the chain shown (N, C = ends). Where no end group is shown, it is not given here. [ ]: non-standard residue; d: D form. TATA = O=C(CC[*:1])N1CN(C(=O)CC[*:2])CN(C(=O)CC[*:3])C1; fluorescein = fluorescein (Fl) label on lysine; 1Nal = N[C@@H](Cc1cccc2ccccc12)C(=O)O; PABC = O=C(OCc1ccc(N[*:1])cc1)[*:2]; Glutaryl = O=C(CCCC(=O)[*:2])[*:1]; Hyp = O=C(O)[C@@H]1C[C@@H](O)CN1; hArg = N=C(N)NCCCC[C@H](N)C(=O)O; Cit = NC(=O)NCCC[C@H](N)C(=O)O; βAla = NCCC(=O)O; Sar = CNCC(=O)O

The Kd is the concentration at which binding is half-saturated. Read a high Kd as a looser complex. What is called Ki is a dissociation constant, usually derived from enzyme kinetics or from competition with a known ligand. What is called EC50 (read off the curve) is the concentration that produces a half-maximal response. High values mean a need for much substance, low ones an effect from little substance.

Take ACPFGCHTDWSWPIWCA[Sar][Sar][Sar][Sar][Sar][Sar]K(fluorescein) (linker 2-6-16 via TATA, also called fluorescent peptide; tracer) [ACPFGCHTDWSWPIWCA-Sar6-K(FI) (SEQ ID NO: 2)]: in experiment [1], the equilibrium dissociation constant (Kd) turned out to be 5 nM.

B1: BCY8116: (SEQ ID NO: 1), cyclised with TATA (peptide)
peptide: CPADCMRDWSTPPWC
modifications: core as printed Ci-P1-[1Nal]2-[dD]3-Cii-M4-[HArg]5-D6-W7-S8-T9-P10-[HyP]11-W12-Ciii (1Nal = 1-naphthylalanine, dD = D-Asp, HArg = homoarginine, HyP = hydroxyproline); Ci, Cii and Ciii covalently bound to the TATA scaffold
notes: Bicyclic peptide
Consider B1, for which the Kd in experiment [2] came to 0.372 nM.
For the molecule Ac-[βAla][Sar][Sar][Sar][Sar][Sar]CP[1Nal][dD]CM[hArg]DWSTP[Hyp]WC (linker 7-11-21 via TATA, Bicyclic peptide) [BCY8122: Ac-[B-Ala][Sar5]-(SEQ ID NO: 1), cyclised with TATA], the affinity in experiment [2], expressed as Kd, was 0.89 nM. Also, the inhibition constant Ki in experiment [3] was 3 nM.

B2: BCY8245: MMAE-PABC-Cit-Val-Glutaryl-BCY8234 (BCY8234 = [B-Ala][Sar10]-(SEQ ID NO: 1), cyclised with TATA) (peptide)
peptide: {MMAE-PABC-Cit-Val-Glutaryl}-[βAla][Sar][Sar][Sar][Sar][Sar][Sar][Sar][Sar][Sar][Sar]CP[1Nal][dD]CM[hArg]DWSTP[Hyp]WC
modifications: linker 12-16-26 via TATA
notes: Bicyclic peptide drug conjugate (BDC) with an MMAE to drug ratio of 1; also called BT8009
With B2, the figures for the Kd in experiment [4], in [5] and in experiment [7] were 5.18 nM, 5.12 nM and 3.52 nM, respectively. Moreover, in [6], the 50% effective concentration (EC50 (read off the curve)) was around 3 nM.

B3: BCY8126: Ac-(SEQ ID NO: 1), cyclised with TATA (peptide)
peptide: CPADCMRDWSTPPWC
modifications: N-terminal acetyl; core as printed Ci-P1-[1Nal]2-[dD]3-Cii-M4-[HArg]5-D6-W7-S8-T9-P10-[HyP]11-W12-Ciii (1Nal = 1-naphthylalanine, dD = D-Asp, HArg = homoarginine, HyP = hydroxyproline); Ci, Cii and Ciii covalently bound to the TATA scaffold
notes: Bicyclic peptide
B3 gave a Ki in experiment [8] of 2.7 nM. In [9], this molecule had a dissociation constant Kd of 1.07 nM.
